Data on three molecules can be found in patent US20180371100A1 (Kyowa Kirin, published 2018).

Substitutions are numbered along the chain they refer to. Several values for one entry are separate records, joined by “and”; a condition that tells them apart may be missing. Equal entries are not always repeated.

In one assay the target is T1, FLAG fusion human CRTH2 (human, UniProt Q9Y5Y4 1-395).
T1 construct: Expressed on rat 3Y1-B cells; also called human CRTH2 with a C terminal to which a FLAG tag was added; not shown: FLAG tag at the C terminal
T1 sequence: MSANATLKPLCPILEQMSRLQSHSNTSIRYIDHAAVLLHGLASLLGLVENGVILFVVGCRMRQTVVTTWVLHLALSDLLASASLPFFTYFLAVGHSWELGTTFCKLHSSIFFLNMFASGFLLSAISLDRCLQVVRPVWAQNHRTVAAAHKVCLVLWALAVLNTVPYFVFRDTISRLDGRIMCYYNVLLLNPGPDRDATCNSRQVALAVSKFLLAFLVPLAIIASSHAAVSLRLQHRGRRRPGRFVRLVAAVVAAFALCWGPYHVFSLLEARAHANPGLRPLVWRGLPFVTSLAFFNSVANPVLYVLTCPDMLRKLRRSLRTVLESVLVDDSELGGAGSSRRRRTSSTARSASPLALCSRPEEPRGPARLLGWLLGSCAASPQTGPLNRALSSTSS
Description: flow cytometry on FLAG fusion human CRTH2-expressing 3Y1-B cells; logistic fit of Geomean; ± is the standard error. The method, then:
FLAG fusion human CRTH2-expressing 3Y1-B cells were peeled using a 0.25% trypsin-EDTA (NACALAI TESQUE, Inc.), washed with PBS, and suspended with SM. Next, the cells were seeded in a 96-well plate such that one well has 1×10⁵ cells. Further, chLym2 or each of the humanized Lym2 antibodies was added at each final concentrations of 50000, 12500, 3125, 781, 195, 49, 12, and 3 ng/mL to cause a reaction at 4° C. for 60 minutes.
After the cells were washed with SM, Goat F(ab′)₂ Anti-Human IgG PE (γchain specific) (Southern Biotech Inc.) diluted 500 times with SM was added to cause a reaction at 4° C. for 60 minutes. The cells were washed with SM and resuspended with 50 μL of SM, and the fluorescent intensity was measured by flow cytometry (BD Biosciences, FACS CantoII).
The data was analyzed by FLowJo 7.65 (Tomy Digital Biology Co., Ltd.), curve fitting of the Geomean value in each concentration was performed using a Logistic curve, and the 50% effective concentration (EC₅₀) value of the binding of chLym2 and each humanized Lym2 antibody and the standard error (SE) value thereof were calculated using R language (Ver. 3.02) which is a language for statistical analysis.
For orientation: A flow cytometer gives signals particle by particle.

Assay [1] deals with T2, Azami-Green fusion cynomolgus monkey CRTH2 (cynomolgus monkey, UniProt Q9Y5Y4 1-395 (human entry)).
T2 construct: Expressed on CHO/DG44 cells; not shown: Azami-Green tag from vector phmAG1-MNLinker (MBL)
T2 chain: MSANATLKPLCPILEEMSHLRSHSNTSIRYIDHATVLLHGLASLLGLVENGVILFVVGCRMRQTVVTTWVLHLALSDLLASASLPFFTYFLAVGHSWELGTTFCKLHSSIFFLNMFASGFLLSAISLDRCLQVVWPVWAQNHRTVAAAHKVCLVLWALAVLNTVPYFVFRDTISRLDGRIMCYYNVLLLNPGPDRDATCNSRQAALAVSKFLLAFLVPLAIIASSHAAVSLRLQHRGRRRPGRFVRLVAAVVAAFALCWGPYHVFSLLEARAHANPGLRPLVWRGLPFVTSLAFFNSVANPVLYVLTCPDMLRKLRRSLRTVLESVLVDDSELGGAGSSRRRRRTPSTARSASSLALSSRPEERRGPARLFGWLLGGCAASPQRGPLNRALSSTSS
Description: flow cytometry on Azami-Green fusion cynomolgus monkey CRTH2-expressing CHO/DG44 cells, 2-30000 ng/mL. As for the experimental part: The Azami-Green fusion human CRTH2-expressing CHO/DG44 cells and the cynomolgus monkey CRTH2-expressing CHO/DG44 cells established in Example 24 were peeled using 0.02% EDTA solution (NACALAI TESQUE, Inc.), washed with PBS, and suspended with SM. Next, the cells were seeded in a 96-well plate such that each well had 2×10⁵ cells, and humanized Lym2 antibody LV0HV1 or the anti-DNP IgG1 antibody at each of final concentrations 30000, 7500, 1875, 469, 117, 29, 7, and 2 ng/mL were added thereto to cause a reaction at 4° C. for 40 minutes.
After the cells were washed three times with SM, goat anti-Human IgG alexa 647 (Molecular Probes) diluted to a concentration of 10 μg/mL with SM was added thereto at 100 μL/well to perform a reaction at 4° C. for 40 minutes. The cells were washed with SM and resuspended with 100 μL of SM, and the fluorescent intensity was measured by flow cytometry (BD Biosciences, FACS CantoII).

B1: humanized Lym2 antibody LV0HV1 (antibody, V domains shown)
VH: EVQLVESGGGVVQPGRSLRLSCAASGFTFSNYYMAWVRQAPGKGLEWVATISYDGSSTYYRDSVKGRFTISRDNAKNSLYLQMNSLRAEDTATYYCARHRGYYYSGAGYFDYWGQGTMVTVSS
VL: DIVMTQTPLSLPVTPGESASISCRSSQSLEYSDGYTYLEWYLQKPGQSPQVLIYGVSNRFSGVPDRFSGSGSGTDFTLKISRVEAEDVGVYYCFQATHDPLTFGQGTKLEIK
notes: also called humanized anti-human CRTH2 antibody LV0HV1
Turning to B1, in the assay with FLAG fusion human CRTH2, the EC50 (in general, the midpoint of the concentration-response curve) came out at 0.78 µg/mL. In addition, in assay [1], the binding result is on record as “binds”.

B2: rat/human chimeric Lym2 antibody (antibody, V domains shown)
VH: B1 VH with V11L, L18M, R19K, G42K, N77S, S78T, N84D, A88S, T117V
VL: DVVLTQTPVSLSVTLGDQASISCRSSQSLEYSDGYTYLEWYLQKPGQSPQVLIYGVSNRFSGVPDRFIGSGSGTDFTLKISRVEPEDLGVYYCFQATHDPLTFGSGTKLEIK
notes: expressed in FUT8 knockout CHO cells; also called chLym2
Consider B2, for which the EC50 in the assay with FLAG fusion human CRTH2 is 0.5 µg/mL and 0.54 µg/mL.

B3: humanized Lym2 antibody LV4HV4 (antibody, V domains shown)
VH: B1 VH with L18M, N77S, T117V
VL: B1 VL with I2V, M4L, P15L, A85P
As for B3, the EC50 in the assay with FLAG fusion human CRTH2 came out at 0.68 µg/mL.
